{
  "source": "patent US20220289857A1",
  "binders": {"B1": {"name": "ITEM-4 commercial anti-Fn14 monoclonal antibody (antibody, from another filing, V domains shown)", "VH": "QVQLQQSGPELVKPGASVKMSCKASGYTFTDFIIAWVKQRTGQGLEWIGEIYPGTGRTYYSEKFRGKATLTADKSSNTAYMQLSSLTSVDSAVYFCARRTIYYDYDGDYWGQGTTLTVSS", "VL": "DIVMTQAAFSNPVTLGTSASISCRSSKSLLHSNGITYLYWYLQKPGQSPQLLIYQMSNLASGVPDRFSSSGSGTDFTLRISRVEAEDVGVYYCAHNLELPWTFGGGTKLELK"}},
  "target": "human Fn14 (full length) on cells (human) (UniProt Q9NP84)",
  "sequence (Q9NP84 28-129)": "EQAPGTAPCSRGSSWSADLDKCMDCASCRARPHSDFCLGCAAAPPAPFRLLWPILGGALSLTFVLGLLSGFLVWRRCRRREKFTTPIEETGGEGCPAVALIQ",
  "assay": "cell-based or functional assay",
  "data": [
    {"binder": "B1", "values": [
      {"measurement": "ICAM-1 MFI on HRMC, 250 ng/mL rhTWEAK, mAb 0.1 µg/mL", "result": 9620, "unit": "MFI"}
    ]}
  ]
}
